The values below are quoted from earlier work in paper PMC5466818.

For the data set, the target named is formin Bnr1 (Saccharomyces cerevisiae) (UniProt P40450).
UniProt P40450, sequence (P40450 whole entry): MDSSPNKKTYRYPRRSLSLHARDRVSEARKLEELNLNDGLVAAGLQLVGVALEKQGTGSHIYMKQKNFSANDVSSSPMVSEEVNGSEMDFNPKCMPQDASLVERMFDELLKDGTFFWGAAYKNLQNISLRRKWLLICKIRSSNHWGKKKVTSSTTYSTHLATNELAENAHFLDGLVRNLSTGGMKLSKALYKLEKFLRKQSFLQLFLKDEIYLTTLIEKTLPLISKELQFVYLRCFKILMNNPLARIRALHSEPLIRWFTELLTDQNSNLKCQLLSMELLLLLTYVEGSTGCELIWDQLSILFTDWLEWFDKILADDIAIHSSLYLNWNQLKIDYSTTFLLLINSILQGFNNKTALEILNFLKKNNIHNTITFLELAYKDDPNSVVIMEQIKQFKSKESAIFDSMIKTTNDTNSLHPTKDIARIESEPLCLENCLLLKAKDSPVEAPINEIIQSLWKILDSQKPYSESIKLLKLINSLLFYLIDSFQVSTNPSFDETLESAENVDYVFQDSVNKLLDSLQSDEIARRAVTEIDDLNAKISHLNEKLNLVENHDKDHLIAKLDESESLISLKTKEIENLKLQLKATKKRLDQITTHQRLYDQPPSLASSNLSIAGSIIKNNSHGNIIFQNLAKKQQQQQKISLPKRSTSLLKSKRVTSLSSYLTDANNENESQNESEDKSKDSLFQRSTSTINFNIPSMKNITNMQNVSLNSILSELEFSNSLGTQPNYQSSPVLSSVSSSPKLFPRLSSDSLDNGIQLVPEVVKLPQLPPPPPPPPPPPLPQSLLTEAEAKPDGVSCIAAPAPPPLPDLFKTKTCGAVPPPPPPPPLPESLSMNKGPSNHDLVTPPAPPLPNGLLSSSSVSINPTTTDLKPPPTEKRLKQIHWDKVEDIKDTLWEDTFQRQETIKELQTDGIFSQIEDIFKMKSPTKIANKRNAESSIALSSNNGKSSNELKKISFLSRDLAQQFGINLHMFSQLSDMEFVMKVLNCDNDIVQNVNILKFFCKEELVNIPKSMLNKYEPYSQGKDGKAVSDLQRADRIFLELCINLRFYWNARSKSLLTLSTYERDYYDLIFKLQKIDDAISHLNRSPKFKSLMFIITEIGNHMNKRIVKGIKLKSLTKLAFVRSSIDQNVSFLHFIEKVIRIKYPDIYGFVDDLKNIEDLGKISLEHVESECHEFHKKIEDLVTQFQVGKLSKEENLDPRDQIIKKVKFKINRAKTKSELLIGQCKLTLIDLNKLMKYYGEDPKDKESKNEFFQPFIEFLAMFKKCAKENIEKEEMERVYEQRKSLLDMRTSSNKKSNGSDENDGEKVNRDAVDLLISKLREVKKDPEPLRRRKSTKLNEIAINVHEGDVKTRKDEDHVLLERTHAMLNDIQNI

By Kd is commonly meant a measure of binding affinity in units of concentration. Consider Bud14 (from UniProt P27637), for which the dissociation constant (Kd) is 15 nM.
